Experimental data: the supplement of paper PMC9112550, “Optimization of the antimicrobial peptide Bac7 by deep mutational scanning” (BMC Biology, 2022)

System: Escherichia coli TOP10
Experiment: shrunken log2 fold change of peptide-encoding DNA abundance (4.5 h post-induction vs induction); higher = less antimicrobial activity (less host growth inhibition)
Conditions: time post-induction: 4.5 h; library: site-saturation at positions 5, 18, 19, 20
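Note: peptides expressed intracellularly from a pBAD plasmid library in pooled LB shake-flask culture, induced with 0.3% L-arabinose, DNA abundance read by NGS, three biological replicates, DESeq2 with apeglm shrinkage.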

Sequence | shrunken log2 fold change
RRIRWRPPRLPRPRPRPAFHPRP | 0.153
RRIRHRPPRLPRPRPRPQIIPRP | -0.634
RRIRARPPRLPRPRPRPIRPPRP | 0.237
RRIRIRPPRLPRPRPRPVGNPRP | 0.00174
RRIRLRPPRLPRPRPRPVCIPRP | -0.498
RRIRPRPPRLPRPRPRPISSPRP | -0.0101
RRIRRRPPRLPRPRPRPWVIPRP | -0.125
RRIRVRPPRLPRPRPRPMSLPRP | 0.0447
RRIRSRPPRLPRPRPRPLMNPRP | -0.204
RRIRFRPPRLPRPRPRPNMAPRP | -0.245
RRIRRRPPRLPRPRPRPWILPRP | -0.0248
RRIRPRPPRLPRPRPRPKPSPRP | 0.699
RRIRYRPPRLPRPRPRPAPEPRP | 0.134
RRIRWRPPRLPRPRPRPIIRPRP | -0.00231
RRIRMRPPRLPRPRPRPAVVPRP | 0.287
RRIRTRPPRLPRPRPRPQDLPRP | -0.0848
RRIRNRPPRLPRPRPRPPAIPRP | 0.276
RRIRKRPPRLPRPRPRPICDPRP | 0.0999
RRIRHRPPRLPRPRPRPDRHPRP | -0.159
RRIRFRPPRLPRPRPRPKPIPRP | 0.0634
RRIRARPPRLPRPRPRPAYIPRP | -0.148
RRIRHRPPRLPRPRPRPVTIPRP | -0.311
RRIRQRPPRLPRPRPRPLVSPRP | 0.00785
RRIRQRPPRLPRPRPRPETDPRP | -0.167
RRIRQRPPRLPRPRPRPSRYPRP | -0.00452

Sequence | shrunken log2 fold change
RRIRCRPPRLPRPRPRPQFAPRP | -0.239
RRIRHRPPRLPRPRPRPKKNPRP | -0.14
RRIRNRPPRLPRPRPRPYQYPRP | 0.0162
RRIRDRPPRLPRPRPRPPSCPRP | 0.379
RRIRNRPPRLPRPRPRPYDKPRP | -0.388
RRIRRRPPRLPRPRPRPWSMPRP | -0.121
RRIRFRPPRLPRPRPRPPSKPRP | -0.148
RRIRWRPPRLPRPRPRPLKIPRP | -0.195
RRIRARPPRLPRPRPRPRRFPRP | 0.603
RRIRMRPPRLPRPRPRPNMKPRP | 0.0548
RRIRDRPPRLPRPRPRPGGCPRP | 0.687
RRIRWRPPRLPRPRPRPPNVPRP | 0.0153
RRIRWRPPRLPRPRPRPMWKPRP | -0.0109
RRIRCRPPRLPRPRPRPHRRPRP | -0.167
RRIRSRPPRLPRPRPRPMLPPRP | -0.078
RRIRYRPPRLPRPRPRPLTFPRP | -0.696
RRIRVRPPRLPRPRPRPLGYPRP | -0.0838
RRIRARPPRLPRPRPRPDTSPRP | 0.435
RRIRIRPPRLPRPRPRPCLNPRP | -0.0496
RRIRPRPPRLPRPRPRPFRVPRP | 0.0659
RRIRTRPPRLPRPRPRPLDHPRP | -0.186
RRIRLRPPRLPRPRPRPRFRPRP | 0.117
RRIRYRPPRLPRPRPRPPPGPRP | 0.909
RRIRRRPPRLPRPRPRPKRHPRP | 0.227
RRIRGRPPRLPRPRPRPYALPRP | 0.0375

Sequence | shrunken log2 fold change
RRIRCRPPRLPRPRPRPWCKPRP | 0.145
RRIRGRPPRLPRPRPRPMDTPRP | 1.12
RRIRYRPPRLPRPRPRPRYWPRP | -0.317
RRIRYRPPRLPRPRPRPMHEPRP | -0.405
RRIRMRPPRLPRPRPRPPRWPRP | -0.117
RRIRLRPPRLPRPRPRPEASPRP | 0.133
RRIRYRPPRLPRPRPRPKFWPRP | 0.449
RRIRMRPPRLPRPRPRPTTRPRP | 0.832
RRIRPRPPRLPRPRPRPTHYPRP | 0.206
RRIRDRPPRLPRPRPRPIWHPRP | 0.144
RRIRWRPPRLPRPRPRPADRPRP | 0.0754
RRIRLRPPRLPRPRPRPLLNPRP | -0.468
RRIRERPPRLPRPRPRPRISPRP | -1.36
RRIRARPPRLPRPRPRPMAPPRP | 0.0991
RRIRIRPPRLPRPRPRPTCHPRP | -0.467
RRIRQRPPRLPRPRPRPTFWPRP | 2.04
RRIRNRPPRLPRPRPRPDNSPRP | -0.188
RRIRHRPPRLPRPRPRPGERPRP | -0.134
RRIRTRPPRLPRPRPRPIWQPRP | 0.168
RRIRGRPPRLPRPRPRPNHWPRP | 0.309
RRIRFRPPRLPRPRPRPCFYPRP | -0.394
RRIRHRPPRLPRPRPRPTTIPRP | -0.165
RRIRLRPPRLPRPRPRPWYDPRP | -0.309
RRIRVRPPRLPRPRPRPHFHPRP | 3.23
RRIRARPPRLPRPRPRPFFYPRP | 0.105

Sequence | shrunken log2 fold change
RRIRTRPPRLPRPRPRPMGRPRP | 0.217
RRIRPRPPRLPRPRPRPKLEPRP | 0.121
RRIRPRPPRLPRPRPRPRCMPRP | 0.0856
RRIRKRPPRLPRPRPRPHVQPRP | -0.0829
RRIRIRPPRLPRPRPRPLNTPRP | -0.876
RRIRKRPPRLPRPRPRPWQTPRP | 0.146
RRIRTRPPRLPRPRPRPRIKPRP | -0.208
RRIRPRPPRLPRPRPRPACAPRP | 0.593
RRIRYRPPRLPRPRPRPDTCPRP | -0.233
RRIRSRPPRLPRPRPRPDVPPRP | -0.0936
RRIRMRPPRLPRPRPRPEATPRP | 4.04
RRIRDRPPRLPRPRPRPRRGPRP | 0.365
RRIRMRPPRLPRPRPRPLNVPRP | 0.0507
RRIRKRPPRLPRPRPRPDCTPRP | 1.22
RRIRCRPPRLPRPRPRPHMMPRP | -1.12
RRIRLRPPRLPRPRPRPSYTPRP | -0.792
RRIRTRPPRLPRPRPRPVRWPRP | 0.774
RRIRDRPPRLPRPRPRPFIGPRP | -0.158
RRIRHRPPRLPRPRPRPHPDPRP | -0.206
RRIRLRPPRLPRPRPRPFGNPRP | -0.498
RRIRERPPRLPRPRPRPEWYPRP | 0.0172
RRIRKRPPRLPRPRPRPWWMPRP | 0.105
RRIRERPPRLPRPRPRPLTCPRP | -0.149
RRIRVRPPRLPRPRPRPILVPRP | -0.00597
RRIRKRPPRLPRPRPRPQTCPRP | -0.132

Sequence | shrunken log2 fold change
RRIRKRPPRLPRPRPRPDDHPRP | 0.0199
RRIRHRPPRLPRPRPRPIHQPRP | -0.441
RRIRCRPPRLPRPRPRPPFVPRP | 0.145
RRIRNRPPRLPRPRPRPLIQPRP | -0.327
RRIRPRPPRLPRPRPRPISEPRP | -0.303
RRIRGRPPRLPRPRPRPKACPRP | 0.145
RRIRARPPRLPRPRPRPMWLPRP | 0.0028
RRIRPRPPRLPRPRPRPDNMPRP | -0.337
RRIRCRPPRLPRPRPRPPMTPRP | 0.155
RRIRCRPPRLPRPRPRPVINPRP | -0.116
RRIRKRPPRLPRPRPRPVINPRP | -0.0513
RRIRARPPRLPRPRPRPIAPPRP | 0.53
RRIRFRPPRLPRPRPRPPHKPRP | -0.027
RRIRERPPRLPRPRPRPPNSPRP | -0.148
RRIRYRPPRLPRPRPRPRDHPRP | -0.308
RRIRPRPPRLPRPRPRPSIYPRP | -0.584
RRIRWRPPRLPRPRPRPPLNPRP | 0.188
RRIRQRPPRLPRPRPRPQFFPRP | -0.122
RRIRIRPPRLPRPRPRPMRHPRP | 0.158
RRIRDRPPRLPRPRPRPYMDPRP | -0.393
RRIRNRPPRLPRPRPRPHFMPRP | -0.409
RRIRKRPPRLPRPRPRPIPQPRP | -0.184
RRIRERPPRLPRPRPRPQFKPRP | -0.444
RRIRDRPPRLPRPRPRPPIGPRP | 0.849
RRIRFRPPRLPRPRPRPANFPRP | 0.151

Sequence | shrunken log2 fold change
RRIRFRPPRLPRPRPRPGTHPRP | 1.26
RRIRLRPPRLPRPRPRPLGLPRP | -0.253
RRIRYRPPRLPRPRPRPIERPRP | 0.0253
RRIRWRPPRLPRPRPRPTYWPRP | 0.235
RRIRWRPPRLPRPRPRPFQFPRP | -0.198
RRIRNRPPRLPRPRPRPMDCPRP | 0.0919
RRIRHRPPRLPRPRPRPYYRPRP | -0.0075
RRIRARPPRLPRPRPRPPTRPRP | 1.29
RRIRGRPPRLPRPRPRPSYDPRP | -0.0196
RRIRGRPPRLPRPRPRPHMNPRP | 0.298
RRIRRRPPRLPRPRPRPPPGPRP | 1.05
RRIRQRPPRLPRPRPRPWIQPRP | -0.251
RRIRIRPPRLPRPRPRPFNGPRP | -0.211
RRIRIRPPRLPRPRPRPECSPRP | -0.428
RRIRGRPPRLPRPRPRPVVLPRP | 0.4
RRIRCRPPRLPRPRPRPEWLPRP | 0.479
RRIRGRPPRLPRPRPRPIGNPRP | -0.149
RRIRVRPPRLPRPRPRPENFPRP | 0.0199
RRIRERPPRLPRPRPRPSHYPRP | -0.611
RRIRKRPPRLPRPRPRPISWPRP | -0.0574
RRIRHRPPRLPRPRPRPQSHPRP | -0.167
RRIRYRPPRLPRPRPRPNQIPRP | -0.0468
RRIRYRPPRLPRPRPRPNIVPRP | -0.224
RRIRARPPRLPRPRPRPVCHPRP | 0.321
RRIRGRPPRLPRPRPRPQKNPRP | 0.368
